{"source": "patent CN109627331A", "binders": {"B1": {"name": "鼠源CPV基因工程抗体 (recombinant mouse anti-canine parvovirus antibody expressed in HEK-293 cells) (antibody, V domains shown)", "VH": "QVQLKQSGPGLVQPSQSLSITCTVSGFSLTSYGVHWVRHSPGKGLEWLGVIWSGGSTDYNAAFISRLSITKDNSKTQVFFKMNSLQANDTAIYYCARNSFYGSTPGSYAMDYWGQGTSVTVSS", "VL": "QIVLTQSPASLSMAIGEKVTIRCIASTDIDDDMNWYQQKPGKPPNLLISEGNTLRPGVPSRFSSSGYGTDFVFTIQNMLSEDVADYYCLQSDNLPLTFGAGTKLELK"}, "B2": {"name": "CPV单克隆抗体 (mouse anti-canine parvovirus monoclonal antibody from hybridoma supernatant) (antibody, V domains shown)", "VH": "QVQLKQSGPGLVQPSQSLSITCTVSGFSLTSYGVHWVRHSPGKGLEWLGVIWSGGSTDYNAAFISRLSITKDNSKTQVFFKMNSLQANDTAIYYCARNSFYGSTPGSYAMDYWGQGTSVTVSS", "VL": "QIVLTQSPASLSMAIGEKVTIRCIASTDIDDDMNWYQQKPGKPPNLLISEGNTLRPGVPSRFSSSGYGTDFVFTIQNMLSEDVADYYCLQSDNLPLTFGAGTKLELK"}}, "key": {"[1]": {"target": "犬细小病毒 (canine parvovirus, whole virus) (犬细小病毒 (canine parvovirus))", "assay": "cell-based or functional assay"}, "[2]": {"target": "犬细小病毒VLPs (canine parvovirus virus-like particles) (犬细小病毒 (canine parvovirus))", "assay": "indirect ELISA, VLPs coated at 1μg/ml, hybridoma supernatant"}, "[3]": {"target": "犬细小病毒VLPs (canine parvovirus virus-like particles) (犬细小病毒 (canine parvovirus))", "assay": "non-competitive indirect ELISA, CPV-VLPs coated at 1, 0.5, 0.25, 0.125 μg/ml; mean of 6 Ka values"}}, "note": "Where “and” joins values, the source holds several entries; their conditions need not be identical. Equal values may be shown once.", "data": [{"binder": "B1", "values": [{"measurement": "中和效价", "setting": "[1]", "value": "4 titre (1:x) and 8 titre (1:x)"}, {"measurement": "血凝抑制效价", "setting": "[1]", "value": "8 titre (1:x)"}]}, {"binder": "B2", "values": [{"measurement": "OD450", "setting": "[2]", "value": 1.07, "unit": "OD450"}, {"measurement": "Ka", "setting": "[3]", "value": "1.02e+11", "unit": "M⁻¹"}]}]}
